Paper PMC12443421 (2025)

Experiments:
[1] = biological target: wild-type unmodified 147 bp nucleosome (nucleosome core particle) (human, UniProt P04908 1-130; P62807 1-126; Q71DI3 1-136; P62805 1-103)
[2] = biological target: wild-type 185 bp nucleosome (with symmetric flanking DNA) (human, UniProt P04908 1-130; P62807 1-126; Q71DI3 1-136; P62805 1-103)

B1: KDM5A^CAT (lysine demethylase 5A, residues 1-801) (domain or fragment)
chain: MAGVGPGGYAAEFVPPPECPVFEPSWEEFTDPLSFIGRIRPLAEKTGICKIRPPKDWQPPFACEVKSFRFTPRVQRLNELEAMTRVRLDFLDQLAKFWELQGSTLKIPVVERKILDLYALSKIVASKGGFEMVTKEKKWSKVGSRLGYLPGKGTGSLLKSHYERILYPYELFQSGVSLMGVQMPNLDLKEKVEPEVLSTDTQTSPEPGTRMNILPKRTRRVKTQSESGDVSRNTELKKLQIFGAGPKVVGLAMGTKDKEDEVTRRRKVTNRSDAFNMQMRQRKGTLSVNFVDLYVCMFCGRGNNEDKLLLCDGCDDSYHTFCLIPPLPDVPKGDWRCPKCVAEECSKPREAFGFEQAVREYTLQSFGEMADNFKSDYFNMPVHMVPTELVEKEFWRLVSSIEEDVIVEYGADISSKDFGSGFPVKDGRRKILPEEEEYALSGWNLNNMPVLEQSVLAHINVDISGMKVPWLYVGMCFSSFCWHIEDHWSYSINYLHWGEPKTWYGVPSHAAEQLEEVMRELAPELFESQPDLLHQLVTIMNPNVLMEHGVPVYRTNQCAGEFVVTFPRAYHSGFNQGYNFAEAVNFCTADWLPIGRQCVNHYRRLRRHCVFSHEELIFKMAADPECLDVGLAAMVCKELTLMTEEETRLRESVVQMGVLMSEEEVFELVPDDERQCSACRTTCFLSALTCSCNPERLVCLYHPTDLCPCPMQKKCLRYRYPLEDLPSLLYGVKVRAQSYDTWVSRVTEALSANFNHKKDLIELRVMLEDAEDRKYPENDLFRKLRDAVKEAETCASVAQLL
Kd [1]: 4 µM | Kd [2]: 3 µM
